Measured values as given in PMC9482650, “Quantitative fragmentomics allow affinity mapping of interactomes” (Nature Communications, 2022).

Columns and labels:
Assay in all cases: holdup assay
Set-up in all cases: key: below the threshold = too weak to quantify, mostly under pKd 3.1 to 4
DLG3_2, Q92796 = biological target: T1, DLG3_2, Q92796
T1 sequence (Q92796 221-321, limits assumed, looked up): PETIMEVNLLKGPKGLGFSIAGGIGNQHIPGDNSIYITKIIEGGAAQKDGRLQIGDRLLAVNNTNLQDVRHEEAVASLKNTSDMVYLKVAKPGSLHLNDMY

Inadl_9, Q8NI35 = biological target: Inadl_9, Q8NI35
Chain of Inadl_9, Q8NI35 (Q8NI35 1530-1615): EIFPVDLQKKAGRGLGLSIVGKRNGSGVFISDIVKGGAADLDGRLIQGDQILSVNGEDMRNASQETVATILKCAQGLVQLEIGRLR

DLG4_3, P78352 = biological target: DLG4_3, P78352
Chain of DLG4_3, P78352 (P78352 306-403): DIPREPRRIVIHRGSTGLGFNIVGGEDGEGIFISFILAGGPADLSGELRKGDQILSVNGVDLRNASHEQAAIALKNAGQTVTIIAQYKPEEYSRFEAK

LNX1_2, Q8TBB1 = biological target: LNX1_2, Q8TBB1
Chain of LNX1_2, Q8TBB1 (Q8TBB1 371-470): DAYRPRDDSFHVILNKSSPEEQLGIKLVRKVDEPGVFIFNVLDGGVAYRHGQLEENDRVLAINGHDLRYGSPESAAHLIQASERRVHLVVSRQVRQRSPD

NHERF2_2, Q15599 = biological target: NHERF2_2, Q15599
Chain of NHERF2_2, Q15599 (Q15599 142-238): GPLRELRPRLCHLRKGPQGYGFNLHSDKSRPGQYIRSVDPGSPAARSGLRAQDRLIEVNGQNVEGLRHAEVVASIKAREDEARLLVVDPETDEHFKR

DLG3_3, Q92796 = biological target: T2, DLG3_3, Q92796
T2 sequence (Q92796 374-475, limits assumed, looked up): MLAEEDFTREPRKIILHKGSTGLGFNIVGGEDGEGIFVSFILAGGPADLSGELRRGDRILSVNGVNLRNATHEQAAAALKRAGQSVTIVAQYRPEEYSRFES

SNTG1, Q9NSN8 = biological target: T3, SNTG1, Q9NSN8
T3 sequence (Q9NSN8 52-150, limits assumed, looked up): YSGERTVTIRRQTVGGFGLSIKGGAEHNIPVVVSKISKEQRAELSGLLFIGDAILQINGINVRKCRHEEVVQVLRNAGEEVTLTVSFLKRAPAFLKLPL

IL16_4, Q14005 = biological target: IL16_4, Q14005
Chain of IL16_4, Q14005 (Q14005 1229-1329): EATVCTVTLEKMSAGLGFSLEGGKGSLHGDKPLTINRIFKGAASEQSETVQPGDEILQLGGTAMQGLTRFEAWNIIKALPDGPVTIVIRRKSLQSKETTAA

LAP2, Q96RT1 = biological target: LAP2, Q96RT1
Chain of LAP2, Q96RT1 (Q96RT1 other isoform, or with tags, fused parts or gaps): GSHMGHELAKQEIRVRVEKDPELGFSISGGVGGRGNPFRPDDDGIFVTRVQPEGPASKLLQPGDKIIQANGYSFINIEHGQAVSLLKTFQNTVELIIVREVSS

APBA3_1, O96018 = biological target: T4, APBA3_1, O96018
T4 sequence (O96018 389-490, limits assumed, looked up): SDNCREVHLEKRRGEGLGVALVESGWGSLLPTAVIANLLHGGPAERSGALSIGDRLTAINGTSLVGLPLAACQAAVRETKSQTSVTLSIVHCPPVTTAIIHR

Inadl_6, Q8NI35 = biological target: Inadl_6, Q8NI35
Chain of Inadl_6, Q8NI35 (Q8NI35 1058-1167): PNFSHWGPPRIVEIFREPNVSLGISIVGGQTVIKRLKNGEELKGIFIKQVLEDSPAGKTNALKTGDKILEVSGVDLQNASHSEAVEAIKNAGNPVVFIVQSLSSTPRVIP

SCRIB_1, Q14160 = biological target: SCRIB_1, Q14160
Chain of SCRIB_1, Q14160 (Q14160 718-814): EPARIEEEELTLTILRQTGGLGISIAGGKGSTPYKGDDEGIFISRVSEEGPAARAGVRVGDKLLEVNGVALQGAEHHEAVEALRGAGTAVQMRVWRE

HTRA3, P83110 = biological target: T5, HTRA3, P83110
T5 sequence (P83110 354-453, limits assumed, looked up): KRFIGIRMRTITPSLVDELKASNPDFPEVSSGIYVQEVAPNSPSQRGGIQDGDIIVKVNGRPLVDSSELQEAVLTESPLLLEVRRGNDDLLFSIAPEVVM

HTRA1, Q92743 = biological target: HTRA1, Q92743
Chain of HTRA1, Q92743 (Q92743 360-477): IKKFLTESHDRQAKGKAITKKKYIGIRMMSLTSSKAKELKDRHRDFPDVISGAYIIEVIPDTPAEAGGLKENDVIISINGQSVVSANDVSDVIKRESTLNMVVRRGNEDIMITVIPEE

DFNB31_2, Q9P202 = biological target: T6, DFNB31_2, Q9P202
T6 sequence (Q9P202 274-371, limits assumed, looked up): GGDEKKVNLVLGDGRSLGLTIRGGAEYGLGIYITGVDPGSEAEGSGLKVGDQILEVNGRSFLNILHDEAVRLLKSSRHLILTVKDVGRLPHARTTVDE

MAGI2_4, Q86UL8 = biological target: MAGI2_4, Q86UL8
Chain of MAGI2_4, Q86UL8 (Q86UL8 772-865): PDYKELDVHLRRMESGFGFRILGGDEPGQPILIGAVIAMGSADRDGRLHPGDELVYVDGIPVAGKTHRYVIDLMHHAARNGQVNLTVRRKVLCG

GRASP, Q7Z6J2 = biological target: GRASP, Q7Z6J2
Chain of GRASP, Q7Z6J2 (Q7Z6J2 96-193): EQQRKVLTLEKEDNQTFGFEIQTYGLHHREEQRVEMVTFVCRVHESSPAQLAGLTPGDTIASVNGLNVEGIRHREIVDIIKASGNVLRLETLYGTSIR

APBA2_1, Q99767 = biological target: T7, APBA2_1, Q99767
T7 sequence (Q99767 563-664, limits assumed, looked up): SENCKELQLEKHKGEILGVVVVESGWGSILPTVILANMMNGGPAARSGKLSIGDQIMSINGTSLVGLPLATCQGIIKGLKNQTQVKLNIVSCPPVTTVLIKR

SNTA1, Q13424 = biological target: T8, SNTA1, Q13424
T8 sequence (Q13424 82-180, limits assumed, looked up): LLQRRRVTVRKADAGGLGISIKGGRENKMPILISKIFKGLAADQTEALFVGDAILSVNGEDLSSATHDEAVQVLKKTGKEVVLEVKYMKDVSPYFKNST

IL16_1, Q14005 = biological target: IL16_1, Q14005
Chain of IL16_1, Q14005 (Q14005 210-306): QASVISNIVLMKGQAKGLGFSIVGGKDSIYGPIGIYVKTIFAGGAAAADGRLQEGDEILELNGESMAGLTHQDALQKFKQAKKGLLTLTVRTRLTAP

MAST1, Q9Y2H9 = biological target: MAST1, Q9Y2H9
Chain of MAST1, Q9Y2H9 (Q9Y2H9 962-1065): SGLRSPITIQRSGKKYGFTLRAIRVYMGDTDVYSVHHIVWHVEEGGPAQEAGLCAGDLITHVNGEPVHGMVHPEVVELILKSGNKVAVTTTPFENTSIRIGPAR

MPP6, Q9NZW5 = biological target: T9, MPP6, Q9NZW5
T9 sequence (Q9NZW5 125-219, limits assumed, looked up): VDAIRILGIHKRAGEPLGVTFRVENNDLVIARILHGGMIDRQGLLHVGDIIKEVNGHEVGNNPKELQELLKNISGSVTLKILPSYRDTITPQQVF

DFNB31_3, Q9P202 = biological target: T10, DFNB31_3, Q9P202
T10 sequence (Q9P202 811-907, limits assumed, looked up): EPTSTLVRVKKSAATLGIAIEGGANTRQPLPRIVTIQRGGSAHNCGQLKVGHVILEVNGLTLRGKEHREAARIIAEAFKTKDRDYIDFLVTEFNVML

Inadl_2, Q8NI35 = biological target: Inadl_2, Q8NI35
Chain of Inadl_2, Q8NI35 (Q8NI35 238-335): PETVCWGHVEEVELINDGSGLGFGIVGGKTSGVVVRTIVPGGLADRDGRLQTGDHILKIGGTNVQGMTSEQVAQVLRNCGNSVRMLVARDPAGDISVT

GRIP2_5, Q9C0E4 = biological target: GRIP2_5, Q9C0E4
Chain of GRIP2_5, Q9C0E4 (Q9C0E4 544-642): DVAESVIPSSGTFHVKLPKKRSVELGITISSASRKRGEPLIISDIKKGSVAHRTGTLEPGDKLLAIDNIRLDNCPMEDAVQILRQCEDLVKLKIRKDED

PARD3B_1, Q8TEW8 = biological target: T11, PARD3B_1, Q8TEW8
T11 sequence (Q8TEW8 196-299, limits assumed, looked up): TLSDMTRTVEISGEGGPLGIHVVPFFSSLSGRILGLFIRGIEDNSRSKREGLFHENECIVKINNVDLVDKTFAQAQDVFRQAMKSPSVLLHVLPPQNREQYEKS

[1] = plain residues with an end cap or a label only (N-terminal biotin on a linker: ado-ado)
[2] = plain residues with an end cap or a label only (N-terminal biotin on a linker: (peg)3)

## ELSATVTTDC [TRIP6, Q15654]
DLG3_2, Q92796; [1]
  pKd: 4.23
Inadl_9, Q8NI35; [1]
  pKd: below the threshold
DLG4_3, P78352; [1]
  pKd: below the threshold
LNX1_2, Q8TBB1; [1]
  pKd: 3.88
NHERF2_2, Q15599; [1]
  pKd: 3.83
DLG3_3, Q92796; [1]
  pKd: below the threshold
SNTG1, Q9NSN8; [1]
  pKd: 3.48
IL16_4, Q14005; [1]
  pKd: below the threshold
LAP2, Q96RT1; [1]
  pKd: below the threshold
APBA3_1, O96018; [1]
  pKd: below the threshold
Inadl_6, Q8NI35; [1]
  pKd: below the threshold
SCRIB_1, Q14160; [1]
  pKd: 4.48
HTRA3, P83110; [1]
  pKd: 4.04
HTRA1, Q92743; [1]
  pKd: 3.56
DFNB31_2, Q9P202; [1]
  pKd: below the threshold
MAGI2_4, Q86UL8; [1]
  pKd: below the threshold
GRASP, Q7Z6J2; [1]
  pKd: 3.54
APBA2_1, Q99767; [1]
  pKd: below the threshold
SNTA1, Q13424; [1]
  pKd: 3.92
IL16_1, Q14005; [1]
  pKd: below the threshold
MAST1, Q9Y2H9; [1]
  pKd: 3.63
MPP6, Q9NZW5; [1]
  pKd: below the threshold
DFNB31_3, Q9P202; [1]
  pKd: 3.62
Inadl_2, Q8NI35; [1]
  pKd: below the threshold
GRIP2_5, Q9C0E4; [1]
  pKd: below the threshold
PARD3B_1, Q8TEW8; [1]
  pKd: below the threshold

## QQSMSSADSTQA [SARS-Cov2-N, P0DTC9]
DLG3_2, Q92796; [2]
  pKd: below the threshold
Inadl_9, Q8NI35; [2]
  pKd: below the threshold
DLG4_3, P78352; [2]
  pKd: below the threshold
LNX1_2, Q8TBB1; [2]
  pKd: below the threshold
NHERF2_2, Q15599; [2]
  pKd: below the threshold
DLG3_3, Q92796; [2]
  pKd: below the threshold
SNTG1, Q9NSN8; [2]
  pKd: below the threshold
IL16_4, Q14005; [2]
  pKd: below the threshold
LAP2, Q96RT1; [2]
  pKd: below the threshold
APBA3_1, O96018; [2]
  pKd: below the threshold
Inadl_6, Q8NI35; [2]
  pKd: below the threshold
SCRIB_1, Q14160; [2]
  pKd: below the threshold
HTRA3, P83110; [2]
  pKd: below the threshold
HTRA1, Q92743; [2]
  pKd: below the threshold
DFNB31_2, Q9P202; [2]
  pKd: below the threshold
MAGI2_4, Q86UL8; [2]
  pKd: below the threshold
GRASP, Q7Z6J2; [2]
  pKd: below the threshold
APBA2_1, Q99767; [2]
  pKd: below the threshold
SNTA1, Q13424; [2]
  pKd: below the threshold
IL16_1, Q14005; [2]
  pKd: below the threshold
MAST1, Q9Y2H9; [2]
  pKd: below the threshold
MPP6, Q9NZW5; [2]
  pKd: below the threshold
DFNB31_3, Q9P202; [2]
  pKd: below the threshold
Inadl_2, Q8NI35; [2]
  pKd: below the threshold
GRIP2_5, Q9C0E4; [2]
  pKd: below the threshold
PARD3B_1, Q8TEW8; [2]
  pKd: below the threshold

## DDASLPVSDV [PLEKHA1, Q9HB21]
DLG3_2, Q92796; [1]
  pKd: below the threshold
Inadl_9, Q8NI35; [1]
  pKd: 3.59
DLG4_3, P78352; [1]
  pKd: below the threshold
LNX1_2, Q8TBB1; [1]
  pKd: below the threshold
NHERF2_2, Q15599; [1]
  pKd: below the threshold
DLG3_3, Q92796; [1]
  pKd: below the threshold
SNTG1, Q9NSN8; [1]
  pKd: 5.09
IL16_4, Q14005; [1]
  pKd: below the threshold
LAP2, Q96RT1; [1]
  pKd: 3.73
APBA3_1, O96018; [1]
  pKd: below the threshold
Inadl_6, Q8NI35; [1]
  pKd: 3.65
SCRIB_1, Q14160; [1]
  pKd: below the threshold
HTRA3, P83110; [1]
  pKd: below the threshold
HTRA1, Q92743; [1]
  pKd: below the threshold
DFNB31_2, Q9P202; [1]
  pKd: below the threshold
MAGI2_4, Q86UL8; [1]
  pKd: below the threshold
GRASP, Q7Z6J2; [1]
  pKd: 3.65
APBA2_1, Q99767; [1]
  pKd: below the threshold
SNTA1, Q13424; [1]
  pKd: 4.44
IL16_1, Q14005; [1]
  pKd: 3.89
MAST1, Q9Y2H9; [1]
  pKd: 3.96
MPP6, Q9NZW5; [1]
  pKd: below the threshold
DFNB31_3, Q9P202; [1]
  pKd: 4.54
Inadl_2, Q8NI35; [1]
  pKd: below the threshold
GRIP2_5, Q9C0E4; [1]
  pKd: below the threshold
PARD3B_1, Q8TEW8; [1]
  pKd: below the threshold

## PPGKHLVTEV [KCNA7, Q96RP8]
DLG3_2, Q92796; [1]
  pKd: 5.19
Inadl_9, Q8NI35; [1]
  pKd: below the threshold
DLG4_3, P78352; [1]
  pKd: 4.16
LNX1_2, Q8TBB1; [1]
  pKd: 3.53
NHERF2_2, Q15599; [1]
  pKd: below the threshold
DLG3_3, Q92796; [1]
  pKd: 4.33
SNTG1, Q9NSN8; [1]
  pKd: 4.35
IL16_4, Q14005; [1]
  pKd: below the threshold
LAP2, Q96RT1; [1]
  pKd: 4.39
APBA3_1, O96018; [1]
  pKd: below the threshold
Inadl_6, Q8NI35; [1]
  pKd: 3.56
SCRIB_1, Q14160; [1]
  pKd: 4.72
HTRA3, P83110; [1]
  pKd: below the threshold
HTRA1, Q92743; [1]
  pKd: 4.84
DFNB31_2, Q9P202; [1]
  pKd: below the threshold
MAGI2_4, Q86UL8; [1]
  pKd: 4.48
GRASP, Q7Z6J2; [1]
  pKd: 4.6
APBA2_1, Q99767; [1]
  pKd: below the threshold
SNTA1, Q13424; [1]
  pKd: 3.95
IL16_1, Q14005; [1]
  pKd: 3.5
MAST1, Q9Y2H9; [1]
  pKd: 4.58
MPP6, Q9NZW5; [1]
  pKd: below the threshold
DFNB31_3, Q9P202; [1]
  pKd: 4.01
Inadl_2, Q8NI35; [1]
  pKd: below the threshold
GRIP2_5, Q9C0E4; [1]
  pKd: below the threshold
PARD3B_1, Q8TEW8; [1]
  pKd: below the threshold
